In the RNAGym collection of RNA variant scans (doi:10.1093/molbev/msab373) one finds reverse-splicing fitness data, which are given here for 15 variants.

B1: Azoarcus group I ribozyme (parent)
chain: GUGCCUUGCGCCGGGAAACCACGCAAGGGAUGGUGUCAAAUUCGGCGAAACCUAAGCGCCCGCCCGGGCGUAUGGCAACGCCGAGCCAAGCUUCGGCGCCUGCGCCGAUGAAGGUGUAGAGACUAGACGGCACCCACCUAAGGCAAACGCUAUGGUGAAGGCAUAGUCCAGGGAGUGGCGAAAGUCACACAAACCGG

The variants in the data set derive from B1. Nature of the data set: reverse-splicing fitness (ratio to wild type); higher = more active; in vitro selection; Mg2+ level not given. The method in brief:
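An in vitro group I ribozyme library with randomized positions was T7-transcribed and gel-purified. In triplicate, 10 pmol RNA in EPPS pH 7.5 was reacted with 50 pmoles of a 30-nt RNA substrate for 1 h at 37 °C across several added MgCl2 levels (1–48 mM), then stopped with EDTA. Products were reverse transcribed from a substrate-complementary primer, PCR-amplified and sequenced (HiSeq 4000). Fitness is a variant's read proportion after selection over that before, normalised to wild type.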
With GUGCCUUGCGCCGGGAAACCACGCAAGGGAUGGUGUCAAAUUCGGCGAAACCUAAGCGCCCGCCCGGGCGUAUGGCAACGCUGAGCCAAGCUUCGGCGCCUGCGCCGAUGUAGGUGUAGAGACUAGACGGCACCCACCUAAGGCCAACGAUAUGGUGAAGGCAUAGUCAAGGGAGAGGCGAAAGUCACACAAACCGG [C82U A111U A145C C150A C169A U176A], the reverse-splicing fitness amounted to 0.00998.

With GUGCCUUGCGCCGGGAAACCACGCAAGGGAUGGUGUCAAAUUCGGCGAAACCUAAGCGCCCGCCCGGGCGUAUGGCAACGCAGAGCCAAGCUUCGGCGCCUGCGCCGAUGGAGGUGUAGGGACUAGACGGCACCCACCUAAGGCCAACGAUAUGGUGAAGGCAUAGUCUAGGGAGAGGCGAAAGUCACACAAACCGG [C82A A111G A120G A145C C150A C169U U176A], the reverse-splicing fitness worked out at 0.0207. Under GUGCCUUGCGCCGGGAAACCACGCAAGGGAUGGUGUCAAAUUCGGCGAAACCUAAGCGCCCGCCCGGGCGUAUGGCAACGCAGAGCCAAGCUUCGGCGCCUGCGCCGAUGCAGGUGUAGAGACUAGACGGCACCCACCUAAGGCCAACGUUAUGGUGAAGGCAUAGUCUAGGGAGGGGCGAAAGUCACACAAACCGG [C82A A111C A145C C150U C169U U176G] stands 0.00776; under GUGCCUUGCGCCGGGAAACCACGCAAGGGAUGGUGUCAAAUUCGGCGAAACCUAAGCGCCCGCCCGGGCGUAUGGCAACGCCGAGCCAAGCUUCGGCGCCUGCGCCGAUGUAGGUGUAGAGACUAGACGGCACCCACCUAAGGCCAACGAUAUGGUGAAGGCAUAGUCUAGGGAGGGGCGAAAGUCACACAAACCGG [A111U A145C C150A C169U U176G], 0.00676; under GUGCCUUGCGCCGGGAAACCACGCAAGGGAUGGUGUCAAAUUCGGCGAAACCUAAGCGCCCGCCCGGGCGUAUGGCAACGCGGAGCCAAGCUUCGGCGCCUGCGCCGAUGCAGGUGUAGAGACUAGACGGCACCCACCUAAGGCUAACGAUAUGGUGAAGGCAUAGUCAAGGGAGCGGCGAAAGUCACACAAACCGG [C82G A111C A145U C150A C169A U176C], 0.0134. Under GUGCCUUGCGCCGGGAAACCACGCAAGGGAUGGUGUCAAAUUCGGCGAAACCUAAGCGCCCGCCCGGGCGUAUGGCAACGCAGAGCCAAGCUUCGGCGCCUGCGCCGAUGCAGGUGUAGUGACUAGACGGCACCCACCUAAGGCUAACGUUAUGGUGAAGGCAUAGUCGAGGGAGCGGCGAAAGUCACACAAACCGG [C82A A111C A120U A145U C150U C169G U176C] stands 0.00338. With GUGCCUUGCGCCGGGAAACCACGCAAGGGAUGGUGUCAAAUUCGGCGAAACCUAAGCGCCCGCCCGGGCGUAUGGCAACGCGGAGCCAAGCUUCGGCGCCUGCGCCGAUGAAGGUGUAGCGACUAGACGGCACCCACCUAAGGCGAACGAUAUGGUGAAGGCAUAGUCCAGGGAGAGGCGAAAGUCACACAAACCGG [C82G A120C A145G C150A U176A] the figure was 0.0196. For GUGCCUUGCGCCGGGAAACCACGCAAGGGAUGGUGUCAAAUUCGGCGAAACCUAAGCGCCCGCCCGGGCGUAUGGCAACGCCGAGCCAAGCUUCGGCGCCUGCGCCGAUGAAGGUGUAGCGACUAGACGGCACCCACCUAAGGCGAACGGUAUGGUGAAGGCAUAGUCUAGGGAGCGGCGAAAGUCACACAAACCGG [A120C A145G C150G C169U U176C], the reverse-splicing fitness amounted to 0.0406. With GUGCCUUGCGCCGGGAAACCACGCAAGGGAUGGUGUCAAAUUCGGCGAAACCUAAGCGCCCGCCCGGGCGUAUGGCAACGCUGAGCCAAGCUUCGGCGCCUGCGCCGAUGCAGGUGUAGCGACUAGACGGCACCCACCUAAGGCUAACGGUAUGGUGAAGGCAUAGUCUAGGGAGGGGCGAAAGUCACACAAACCGG [C82U A111C A120C A145U C150G C169U U176G] the figure was 0.00581.

For GUGCCUUGCGCCGGGAAACCACGCAAGGGAUGGUGUCAAAUUCGGCGAAACCUAAGCGCCCGCCCGGGCGUAUGGCAACGCUGAGCCAAGCUUCGGCGCCUGCGCCGAUGCAGGUGUAGCGACUAGACGGCACCCACCUAAGGCCAACGAUAUGGUGAAGGCAUAGUCUAGGGAGUGGCGAAAGUCACACAAACCGG [C82U A111C A120C A145C C150A C169U], the reverse-splicing fitness turned out to be 0.00906. Take GUGCCUUGCGCCGGGAAACCACGCAAGGGAUGGUGUCAAAUUCGGCGAAACCUAAGCGCCCGCCCGGGCGUAUGGCAACGCUGAGCCAAGCUUCGGCGCCUGCGCCGAUGUAGGUGUAGUGACUAGACGGCACCCACCUAAGGCAAACGCUAUGGUGAAGGCAUAGUCGAGGGAGAGGCGAAAGUCACACAAACCGG [C82U A111U A120U C169G U176A]: the reverse-splicing fitness stood at 0.00316.

Regarding GUGCCUUGCGCCGGGAAACCACGCAAGGGAUGGUGUCAAAUUCGGCGAAACCUAAGCGCCCGCCCGGGCGUAUGGCAACGCUGAGCCAAGCUUCGGCGCCUGCGCCGAUGGAGGUGUAGUGACUAGACGGCACCCACCUAAGGCCAACGGUAUGGUGAAGGCAUAGUCUAGGGAGAGGCGAAAGUCACACAAACCGG [C82U A111G A120U A145C C150G C169U U176A], the reverse-splicing fitness came to 0.00227. With GUGCCUUGCGCCGGGAAACCACGCAAGGGAUGGUGUCAAAUUCGGCGAAACCUAAGCGCCCGCCCGGGCGUAUGGCAACGCGGAGCCAAGCUUCGGCGCCUGCGCCGAUGUAGGUGUAGUGACUAGACGGCACCCACCUAAGGCGAACGUUAUGGUGAAGGCAUAGUCGAGGGAGAGGCGAAAGUCACACAAACCGG [C82G A111U A120U A145G C150U C169G U176A] the figure was 0.00833; with GUGCCUUGCGCCGGGAAACCACGCAAGGGAUGGUGUCAAAUUCGGCGAAACCUAAGCGCCCGCCCGGGCGUAUGGCAACGCGGAGCCAAGCUUCGGCGCCUGCGCCGAUGCAGGUGUAGUGACUAGACGGCACCCACCUAAGGCCAACGAUAUGGUGAAGGCAUAGUCCAGGGAGCGGCGAAAGUCACACAAACCGG [C82G A111C A120U A145C C150A U176C], 0.00361; with GUGCCUUGCGCCGGGAAACCACGCAAGGGAUGGUGUCAAAUUCGGCGAAACCUAAGCGCCCGCCCGGGCGUAUGGCAACGCGGAGCCAAGCUUCGGCGCCUGCGCCGAUGAAGGUGUAGUGACUAGACGGCACCCACCUAAGGCUAACGUUAUGGUGAAGGCAUAGUCCAGGGAGAGGCGAAAGUCACACAAACCGG [C82G A120U A145U C150U U176A], 0.0449.
